Measured values: patent US6635459B1, “Nucleotide sequences encoding pinoresinol/lariciresinol reductase proteins and their methods of use” (Washington State University Research Foundation, priority 1996, dated 2003)

Assays:
HW-1 = settings: cited from earlier work
cAMP-phosphodiesterase = settings: cited from earlier work
[1] = target: T1, 35 kDa form of (+)-pinoresinol/(+)-lariciresinol reductase (Forsythia intermedia, UniProt P93143); test: Initial velocity studies, reductase 35 kDa isoform; format: biochemical; settings: 35 kDa form of the enzyme; NADPH 80 μM, pH 7.4, 30° C.
T1 construct: pure enzyme (after MonoQ anion-exchange chromatography); from tissue; host or cells: Forsythia intermedia stems
T1 sequence (P93143 2-312): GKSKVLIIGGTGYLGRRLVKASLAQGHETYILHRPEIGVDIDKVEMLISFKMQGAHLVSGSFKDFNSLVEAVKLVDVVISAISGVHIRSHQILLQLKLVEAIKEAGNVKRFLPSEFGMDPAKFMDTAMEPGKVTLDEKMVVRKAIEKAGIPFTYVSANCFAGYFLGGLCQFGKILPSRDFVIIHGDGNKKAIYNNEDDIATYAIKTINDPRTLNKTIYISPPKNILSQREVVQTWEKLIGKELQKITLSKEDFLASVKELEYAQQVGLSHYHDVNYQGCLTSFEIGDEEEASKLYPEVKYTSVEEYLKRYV
Protocol: (§1) Kinetic Parameters. […] The initial velocity studies were carried out individually utilizing the two isoforms of the enzyme, and individually employing both (+)-pinoresinol and (+)-lariciresinol as substrates. Initial velocity studies were performed in triplicate experiments, using 50 mM Bis-Tris Propane buffer, pH 7.4 containing 5 mM dithiothreitol, pure enzyme (after MonoQ anion-exchange chromatography), ten different substrate concentrations (between 8.8 and 160 μM) at a constant NADPH concentration (80 μM). Incubations were carried out at 30° C. for 10 min (within the linear kinetic range). Kinetic parameters were determined from Lineweaver-Burk plots.

[2] = target: 36 kDa form of (+)-pinoresinol/(+)-lariciresinol reductase (Forsythia x intermedia, UniProt P93143); test: Initial velocity studies, reductase 36 kDa isoform; settings: 36 kDa form of the enzyme; NADPH 80 μM, pH 7.4, 30° C.
Protocol: as §1

HIV = settings: cited from earlier work
(±)-pinoresinols = test: Substrate specificity of recombinant Thuja plicata reductases expressed in E. coli; format: biochemical; settings: β-galactosidase fusion in E. coli total protein extract, 3 hour incubation at 30° C.
E-coniferyl alcohol [3] = test: Kinetic characterization of conversion of E-coniferyl alcohol to (+)-pinoresinol with dirigent protein and oxidase/oxidant; format: biochemical, Forsythia intermedia; settings: (+)-pinoresinol formation from E-coniferyl alcohol, dirigent protein 770 pmol ml^−1 alone or with Fraction III 12 μg protein ml^−1, laccase 2.07 pmol ml^−1, FMN 0.5 μmol ml^−1
Protocol: Assays were carried out as described in Example 3 by incubating a series of E-[9-^3H]coniferyl alcohol concentrations (between 8.00 and 0.13 μmol ml^−1, 7.3 MBq mole literl) with dirigent protein (770 pmol ml^−1) alone and in presence of Forsythia laccase (2.1 pmol ml^−1), fraction III (12 μg protein ml^−1), or FMN (0.5 μmol ml^−1). Assays with dirigent protein, in presence or absence of FMN, were incubated at 30° C. for 1 hour, whereas assays with Forsythia laccase or fraction III in presence or absence of dirigent protein were incubated at 30° C. for 15 min. If free-radical capture by the dirigent protein is the operative mechanism, the Michaelis-Menten parameters obtained will only represent formal rather than true values, because the highest free-energy intermediate state during the conversion of E-coniferyl alcohol into (+)-pinoresinol is still unknown and the relation between the concentration of substrate and that of the corresponding intermediate free-radical in open solution has not been delineated.
Bearing these qualifications in mind, we estimated formal Km and Vmax values for the dirigent protein preparation.

E-sinapyl alcohol = E-sinapyl alcohol coupling assay (oxidant with/without dirigent protein); format: biochemical, Forsythia intermedia; settings: dirigent protein (770 pmol ml^−1) alone, no added oxidant; 6 hour assay
Protocol: Investigation of Substrate-Specific Stereoselectivity. The coupling stereoselectivity was substrate specific. Neither E-p-[9-^3H]coumaryl (4 μmol ml^−1, 44.5 kBq) or E-[8-^14C]sinapyl alcohols (4 μmol ml^−1, 8.3 kBq), which differ from E-coniferyl alcohol only by a methoxyl group substituent on the aromatic ring, yielded stereoselective products when incubated for 6 hours with FMN and ammonium peroxydisulfate respectively, in the presence and absence of the dirigent protein. Incubations were carried out as described above with the following modifications: E-p-[9-^3H]coumaryl (4 μmol ml^−1, 44.5 kBq) or E-[8-^14C]sinapyl alcohols (4 μmol ml^−1, 8.3 kBq) were used as substrates and, after 6 hour incubation at 30° C., the reaction mixture was extracted with EtOAc but without addition of radiochemical carriers.

E-coniferyl alcohol [4] = test: (+)-Pinoresinol-forming activity from E-[9-3H]coniferyl alcohol; format: biochemical, Forsythia intermedia
E-coniferyl alcohol [5] = test: E-coniferyl alcohol coupling assay (oxidant with/without dirigent protein); format: biochemical, Forsythia intermedia; settings: dirigent protein (770 pmol ml^−1) alone, no added oxidant; 6 hour assay
Protocol: E-coniferyl alcohol coupling assay. E-[9-^3H]Coniferyl alcohol (4 μmol ml^−1, 29.3 kBq) was incubated with a 120-kD laccase (previously purified from Forsythia intermedia stem tissue) over a […], in the presence and absence of the dirigent protein, as follows. Each assay consisted of E-[9-^3H]coniferyl alcohol (4 μmol ml^−1, 29.3 kBq, 7.3 MBq mole liter^−1; or 2 μmol ml^−1, 14.7 kBq with fraction III), the 78-kD dirigent protein, an oxidase or oxidant, or both [final concentrations: 770 pmol ml^−1 dirigent protein; 10.7 pmol protein ml^−1 Forsythia laccase; 12 μg protein ml^−1 fraction III; 0.5 μmol ml^−1 FMN; 0.5 μmol ml^−1 FAD; 1 and 10 μmol ml^−1 ammonium peroxydisulfate] in buffer (0.1 M MES-HEPES-sodium acetate, pH 5.0) to a total volume of 250 μl. The enzymatic reaction was initiated by addition of E-[9-^3H]coniferyl alcohol. Controls were performed in the presence of buffer alone.
After one hour incubation at 30° C. while shaking, the assay mixture was extracted with ethyl acetate (EtOAc, 500 μl) containing (±)-pinoresinols (7.5 μg), (±)-dehydrodiconiferyl alcohols (3.5 μg) and erythro/threo (±)-guaiacylglycerol 8-O-4′-coniferyl alcohol ethers (7.5 μg) as radiochemical carriers and ferulic acid (15.0 μg) as an internal standard. After centrifugation (13,800 g, 5 min), the EtOAc soluble components were removed and the extraction procedure repeated with EtOAc (500 μl). The EtOAc soluble components from each assay were combined, the solutions evaporated to dryness in vacuo, redissolved in methanol-water solution (1:1; 100 μl) with an aliquot (50 μl) thereof subjected to reversed-phase column chromatography (Waters, Nova-Pak C18, 150 mm by 3.8 mm). The elution conditions were as follows: acetonitrile/3% acetic acid in H2O (5:95) from 0 to 5 min, then linear gradients to ratios of 10:90 between 5 and 20 min, then to 20:80 between 20 and 45 min and finally to 50:50 between 45 and 60 min, at a flow rate of 8.8 ml min^−1 cm^−2.
Fractions corresponding to E-coniferyl alcohol, erythro/threo (±)-guaiacylglycerol 8-O-4′-coniferyl alcohol ethers, (±)-dehydrodiconiferyl alcohols and (±)-pinoresinols were individually collected, aliquots removed for liquid scintillation counting, and the remainder freeze-dried. Pinoresinol-containing fractions were redissolved in methanol (100 μl) and subjected to chiral column chromatography (Daicel, Chiralcel OD, 50 mm by 4.6 mm) with a solution of hexanes and ethanol (1:1) as the mobile phase (flow rate 3 ml min^−1 cm^−2), whereas dehydrodiconiferyl alcohol fractions were subjected to Chiralcel OF (250 mm by 4.6 mm) column chromatography eluted with a solution of hexanes and isopropanol (9:1) as the mobile phase (flow rate 2.4 ml min^−1 cm^−2), the radioactivity of the eluent being measured with a flow-through detector (Radiomatic, Model A120).
Ammonium peroxydisulfate readily undergoes homolytic cleavage (A. Usaitis, R. Makuska, Polymer 35:4896 (1994)) and is routinely used as an one-electron oxidant in acrylamide polymerization. Ammonium peroxydisulfate was first incubated with E-[9-^3H]coniferyl alcohol (4 μmol ml^−1, 29.3 kBq) for 6 hours using the E-coniferyl alcohol coupling assay procedure described above.

## COc1cc(C[C@]2(O)C(=O)OC[C@H]2Cc2ccc(OC)c(OC)c2)ccc1O (single isomer, unassigned) [(+)-enantiomer]
HW-1
  inhibition of in vitro replication of HW-1: much less effective

## COc1cc(C[C@H]2COC(=O)[C@@H]2Cc2ccc(O)c(OC)c2)ccc1O [matairesinol]
cAMP-phosphodiesterase
  cAMP-phosphodiesterase inhibition: inhibit cAMP-phosphodiesterase

## (+)-pinoresinol
[1]
  Km: 27 ± 1.5 µM
  Vmax (apparent maximum velocity): 16.2±0.4 μmol h^−1 mg^−1 of protein
[2]
  Km: 23 ± 1.3 µM
  Vmax (apparent maximum velocity): 17.3±0.5 μmol h^−1 mg^−1 of protein

## (−)-trachelogenin
HW-1
  inhibition of in vitro replication of HW-1: inhibits
HIV
  effectiveness against HIV (reverse transcriptase inhibitory activities): effective against HIV

B1: plr-Tp2: Thuja plicata (+)-pinoresinol/(+)-lariciresinol reductase (SEQ ID NO:64) expressed in E. coli (protein)
chain: MEESSRVLIVGGTGYIGRRIVKASIALGHPTFILFRKEVVSDVEKVEMLLSFKKNGAKLLEASFDDHESLVDAVKQVDVVISAVAGNHMRHHILQQLKLVEAIKEAGNIKRFVPSEFGMDPGLMEHAMAPGNIVFIDKIKVREAIEAASIPHTYISANIFAGYLVGGLAQLGRVMPPSEKVILYGDGNVKAVWVDEDDVGIYTIKAIDDPHTLNKTMYIRPPLNILSQKEVVEKWEKLSGKSLNKINISVEDFLAGMEGQSYGEQIGISHFYQMFYRGDLYNFEIGPNGVEASQLYPEVKYTTVDSYMERYL
(±)-pinoresinols
  substrate specificity: same substrate specificity and product formation as the original Forsythia intermedia reductase

B2: plr-Tp1: Thuja plicata (−)-pinoresinol/(−)-lariciresinol reductase (SEQ ID NO:62) expressed in E. coli (protein)
chain: MDKKSRVLIVGGTGYIGKRIVNASISLGHPTYVLFRPEVVSNIDKVQMLLYFKQLGAKLIEASLDDHQRLVDALKQVDVVISALAGGVLSHHILEQLKLVEAIKEAGNIKRFLPSEFGMDPDIMEHALQPGSITFIDKRKVRRAIEAASIPYTYVSSNMFAGYFAGSLAQLDGHMMPPRDKVLIYGDGNVKGIWVDEDDVGTYTIKSIDDPQTLNKTMYIRPPMNILSQKEVIQIWERLSEQNLDKIYISSQDFLADMKDKSYEEKIVRCHLYQIFFRGDLYNFEIGPNAIEATKLYPEVKYVTMDSYLERYV
(±)-pinoresinols
  substrate specificity: can use both (−)-pinoresinol and (+)-pinoresinol as substrates

B3: Dirigent protein: 78-kD protein purified from Forsythia intermedia stems that guides stereoselective coupling of E-coniferyl alcohol radicals to (+)-pinoresinol (protein)
chain: MVSKTQIVALFLCFLTSTSSATYGRKPRPRRPCKELVFYFHDVLFKGNNYHNATSAIVGSPQWGNKTAMAVPFNYGDLVVFDDPITLDNNLHSPPVGRAQGMYFYDQKNTYNAWLGFSFLFNSTKYVGTLNFAGADPLLNKTRDISVIGGTGDFFMARGVATLMTDAFEGDVYFRLRVDINLYECW
E-coniferyl alcohol [3]
  Vmax: 0.02 ± 0.02 mol s^−1 mol^−1 dirigent protein
E-coniferyl alcohol [3]; listed as dirigent protein
  Vmax: 0.02±0.02 mol s^−1 mol^−1 dirigent prote
E-coniferyl alcohol [3]; read-out: Formal Km
  Km: 10000 ± 6000 µM
E-sinapyl alcohol
  E-Sinapyl alcohol in dimer equivalents depleted: 110 ± 10 nmol/mL
  Racemic (±)-syringaresinols: 50 ± 10 nmol/mL
E-coniferyl alcohol [4]; E-[9-3H]coniferyl alcohol as substrate for one hour
  (+)-pinoresinol-forming activity: < 5 % of total activity loaded onto the POROS SP-M column
E-coniferyl alcohol [4]; protein by itself, over 10 hours
  (+)-pinoresinol formation (residual oxidizing capacity): < 5%
E-coniferyl alcohol [5]
  (+)-Pinoresinol: 55 ± 1 nmol/mL
  (±)-Dehydro-diconiferyl alcohols: 8 ± 1 nmol/mL
  (±)-Guaiacyl-glycerol 8-O-4′-coniferyl alcohol ethers: 5 ± 1 nmol/mL
  (±)-Pinoresinols: 0 nmol/mL
  E-Coniferyl alcohol in dimer equivalents depleted: 61 ± 20 nmol/mL
  Total dimers: 68 ± 3 nmol/mL
